{
  "source": "paper PMC12455584",
  "target": "T1, scIHF-His (single-chain IHF, ihfA-linker-ihfB-6xHis) internal_change (Salmonella enterica serovar Typhimurium 14028s?) (UniProt P0A1S0)",
  "T1 sequence": "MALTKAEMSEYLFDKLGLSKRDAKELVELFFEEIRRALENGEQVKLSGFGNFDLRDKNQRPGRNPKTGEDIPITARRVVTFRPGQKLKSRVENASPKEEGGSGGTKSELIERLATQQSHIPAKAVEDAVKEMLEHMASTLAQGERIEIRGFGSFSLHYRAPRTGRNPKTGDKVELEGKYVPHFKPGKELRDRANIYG",
  "test": "EMSA",
  "conditions": "EMSA: 25 mM Tris pH 8, 75 mM NaCl, 10% glycerol, 0.5 mM DTT, 0.5 mM EDTA, 1 ug poly(dIdC), 0.1 mg/ml BSA, 0.87 pmol DNA in 20 ul, 37 C 10 min; gel 4-15% PAGE …",
  "data": [
    {"sequence": "CCCTCGTGTACCATTGTTTACTTTTTGATCTAAAAATTACATCAAATGAACACAAAAAACGGTATAAAAAACGCTC (double strand) [intA promoter IHF BS(+)]", "values": [
      {"measurement": "binding", "result": "binds"}
    ]}
  ]
}
